Consider one substance from paper PMC8546591, “Neodymium as Metal Cofactor for Biological Methanol Oxidation: Structure and Kinetics of an XoxF1-Type Methanol Dehydrogenase” (mBio, 2021).

In one series the test system is CO. The experiment in a line: purified protein. The note with it: pH 7, 45°C, 1 mM PES, 100 μM DCPIP, 200 nM enzyme, no ammonium, first 2 min.
A further series deals with C=O. The experiment in a line: purified protein. Conditions: pH 7, 45°C, 1 mM PES, 100 μM DCPIP, 200 nM enzyme, no ammonium, first 2 min, formaldehyde from dissolved paraformaldehyde.

Usually Km stands for the concentration of substrate that gives half-maximal velocity.

In the case of “Nd-XoxF1 (XoxF1-type methanol dehydrogenase) (Methylacidimicrobium sp. AP8)”, the Km in the series on CO was 1.4 ± 0.6 µM; with C=O, 1.6 ± 0.8 µM.
